Source: IntAct's records for PubMed 31515488

B1: Trichoplein keratin filament-binding protein (Homo sapiens), Q9BT92 (parent)
chain: MALPTLPSYWCSQQRLNQQLARQREQEARLRQQWEQNSRYFRMSDICSSKQAEWSSKTSYQRSMHAYQREKMKEEKRRSLEARREKLRQLMQEEQDLLARELEELRLSMNLQERRIREQHGKLKSAKEEQRKLIAEQLLYEHWKKNNPKLREMELDLHQKHVVNSWEMQKEEKKQQEATAEQENKRYENEYERARREALERMKAEEERRQLEDKLQAEALLQQMEELKLKEVEATKLKKEQENLLKQRWELERLEEERKQMEAFRQKAELGRFLRHQYNAQLSRRTQQIQEELEADRRILQALLEKEDESQRLHLARREQVMADVAWMKQAIEEQLQLERAREAELQMLLREEAKEMWEKREAEWARERSARDRLMSEVLTGRQQQIQEKIEQNRRAQEESLKHREQLIRNLEEVRELARREKEESEKLKSARKQELEAQVAERRLQAWEADQQEEEEEEEARRVEQLSDALLQQEAETMAEQGYRPKPYGHPKIAWN
partner: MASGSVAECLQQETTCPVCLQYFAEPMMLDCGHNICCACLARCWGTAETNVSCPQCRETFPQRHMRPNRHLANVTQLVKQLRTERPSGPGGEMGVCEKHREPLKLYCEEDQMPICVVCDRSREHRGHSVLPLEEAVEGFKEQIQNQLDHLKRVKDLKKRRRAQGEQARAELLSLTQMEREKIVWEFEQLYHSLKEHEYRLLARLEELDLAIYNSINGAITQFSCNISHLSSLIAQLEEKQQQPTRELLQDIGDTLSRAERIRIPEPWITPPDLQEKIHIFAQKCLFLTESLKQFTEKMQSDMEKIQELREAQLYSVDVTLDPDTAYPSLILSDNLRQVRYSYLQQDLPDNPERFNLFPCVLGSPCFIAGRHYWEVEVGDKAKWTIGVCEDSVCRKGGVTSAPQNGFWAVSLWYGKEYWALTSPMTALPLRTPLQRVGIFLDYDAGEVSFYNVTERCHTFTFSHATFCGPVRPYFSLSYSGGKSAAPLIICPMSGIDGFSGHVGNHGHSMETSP
B2: Coiled-coil domain-containing protein 60 (Homo sapiens), Q8IWA6 (parent)
chain: MTKVPATKKLQSSPNSGAVRPFYASENLRQVPDKPMKSIKYMDKEIINLKKDLIRSRFLIQSVKIGRGYFAILREETAKKKKQQQLQKLKEEERNKFQPAEKISEIHYGDTLLSTYDDEKLKTLGARVTRRPFTPIHSCIISPSLTEAHVEPLFRQLCALHWLLEALTIDHTHHTMKPVITCWNPKDPGGSKSTIKKINKDKSMGQKWEHFITAPKTKKFKIPTMRVTNRKPSRRGSTLSLSRASGGSSPQSSMISVNPGSDEPPSVNTQVTSSKDIEDNESSSTKPDEEPLYMNLQKLLEMVREDARRTVTIENGMQRKAPSILSVLKQNKSNSAYKEMQTTLKSSERSSSTSAESHIQPVQKKSKNRTNCDINIHYKSGVCNTMRAKFYSVAQEAGFCLQDKMEILMKRQEERGIQKFRAFVLVSNFQKDIAKMRHHISVVKGDAEEIADHWYFDLLSKLPEDLKNFRPAKKILVKLQKFGENLDLRIRPHVLLKVLQDLRIWELCSPDIAVAIEFVREHIIHMPQEDYISWLQSRINIPIGPYSALR
B3: Protein LDOC1 (Homo sapiens), O95751 (parent)
chain: MVDELVLLLHALLMRHRALSIENSQLMEQLRLLVCERASLLRQVRPPSCPVPFPETFNGESSRLPEFIVQTASYMLVNENRFCNDAMKVAFLISLLTGEAEEWVVPYIEMDSPILGDYRAFLDEMKQCFGWDDDEDDDDEEEEDDY
partner: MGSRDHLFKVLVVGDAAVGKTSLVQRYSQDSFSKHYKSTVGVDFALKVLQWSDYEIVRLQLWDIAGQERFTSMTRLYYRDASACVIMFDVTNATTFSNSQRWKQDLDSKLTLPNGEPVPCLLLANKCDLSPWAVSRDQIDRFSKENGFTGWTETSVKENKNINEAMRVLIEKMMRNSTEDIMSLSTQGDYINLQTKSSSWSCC
B4: 2'-5'-oligoadenylate synthase 2 (Homo sapiens), P29728 (parent)
chain: MGNGESQLSSVPAQKLGWFIQEYLKPYEECQTLIDEMVNTICDVLQEPEQFPLVQGVAIGGSYGRKTVLRGNSDGTLVLFFSDLKQFQDQKRSQRDILDKTGDKLKFCLFTKWLKNNFEIQKSLDGFTIQVFTKNQRISFEVLAAFNALSLNDNPSPWIYRELKRSLDKTNASPGEFAVCFTELQQKFFDNRPGKLKDLILLIKHWHQQCQKKIKDLPSLSPYALELLTVYAWEQGCRKDNFDIAEGVRTVLELIKCQEKLCIYWMVNYNFEDETIRNILLHQLQSARPVILDPVDPTNNVSGDKICWQWLKKEAQTWLTSPNLDNELPAPSWNVLPAPLFTTPGHLLDKFIKEFLQPNKCFLEQIDSAVNIIRTFLKENCFRQSTAKIQIVRGGSTAKGTALKTGSDADLVVFHNSLKSYTSQKNERHKIVKEIHEQLKAFWREKEEELEVSFEPPKWKAPRVLSFSLKSKVLNESVSFDVLPAFNALGQLSSGSTPSPEVYAGLIDLYKSSDLPGGEFSTCFTVLQRNFIRSRPTKLKDLIRLVKHWYKECERKLKPKGSLPPKYALELLTIYAWEQGSGVPDFDTAEGFRTVLELVTQYQQLCIFWKVNYNFEDETVRKFLLSQLQKTRPVILDPAEPTGDVGGGDRWCWHLLAKEAKEWLSSPCFKDGTGNPIPPWKVPTMQTPGSCGARIHPIVNEMFSSRSHRILNNNSKRNF
B5: Low-density lipoprotein receptor class A domain-containing protein 1 (Homo sapiens), Q5T700 (parent)
chain: MNKVFPQGENGYTAAESKAHPGGEAGGGHLCCSRRGACLSASLLLLLATVAALIALVTILGLPSCTPGAQACITLTNRTGFLCHDQRSCIPASGVCDGVRTCTHGEDEDESLCRDVPQSLPHFLVAHCGDPASWIYSDQKCDGTNNCGDCSDELSPVTVCPPCGPGWWRCPSTFFKYCDCIPRHLCRDHVQHCSDWSDEYACPGP
partner: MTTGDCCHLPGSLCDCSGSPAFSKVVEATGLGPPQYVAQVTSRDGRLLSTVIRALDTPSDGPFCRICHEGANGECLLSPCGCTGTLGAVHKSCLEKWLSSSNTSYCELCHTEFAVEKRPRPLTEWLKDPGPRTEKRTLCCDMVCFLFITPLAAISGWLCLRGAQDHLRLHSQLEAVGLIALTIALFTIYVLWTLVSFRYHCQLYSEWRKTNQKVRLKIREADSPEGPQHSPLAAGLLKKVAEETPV
B6: Antiviral innate immune response effector IFIT1 (Homo sapiens), P09914 (parent)
chain: MSTNGDDHQVKDSLEQLRCHFTWELSIDDDEMPDLENRVLDQIEFLDTKYSVGIHNLLAYVKHLKGQNEEALKSLKEAENLMQEEHDNQANVRSLVTWGNFAWMYYHMGRLAEAQTYLDKVENICKKLSNPFRYRMECPEIDCEEGWALLKCGGKNYERAKACFEKVLEVDPENPESSAGYAISAYRLDGFKLATKNHKPFSLLPLRQAVRLNPDNGYIKVLLALKLQDEGQEAEGEKYIEEALANMSSQTYVFRYAAKFYRRKGSVDKALELLKKALQETPTSVLLHHQIGLCYKAQMIQIKEATKGQPRGQNREKLDKMIRSAIFHFESAVEKKPTFEVAHLDLARMYIEAGNHRKAEENFQKLLCMKPVVEETMQDIHFHYGRFQEFQKKSDVNAIIHYLKAIKIEQASLTRDKSINSLKKLVLRKLRRKALDLESLSLLGFVYKLEGNMNEALEYYERALRLAADFENSVRQGP
partner: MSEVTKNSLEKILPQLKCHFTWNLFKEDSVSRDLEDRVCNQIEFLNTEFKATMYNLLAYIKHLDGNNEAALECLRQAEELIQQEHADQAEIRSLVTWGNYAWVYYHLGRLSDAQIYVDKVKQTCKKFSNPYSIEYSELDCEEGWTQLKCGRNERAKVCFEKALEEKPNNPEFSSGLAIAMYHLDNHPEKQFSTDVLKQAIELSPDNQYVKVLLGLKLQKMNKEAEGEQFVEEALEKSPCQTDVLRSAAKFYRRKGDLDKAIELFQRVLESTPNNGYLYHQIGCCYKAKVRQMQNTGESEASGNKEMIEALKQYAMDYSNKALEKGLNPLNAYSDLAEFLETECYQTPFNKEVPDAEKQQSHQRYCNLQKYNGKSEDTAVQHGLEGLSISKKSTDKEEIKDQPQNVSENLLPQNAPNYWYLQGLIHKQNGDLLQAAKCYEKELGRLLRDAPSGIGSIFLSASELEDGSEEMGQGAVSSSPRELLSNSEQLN
B7: Cyclin-D1-binding protein 1 (Homo sapiens), O95273 (parent)
chain: MASATAPAAAVPTLASPLEQLRHLAEELRLLLPRVRVGEAQETTEEFNREMFWRRLNEAAVTVSREATTLTIVFSQLPLPSPQETQKFCEQVHAAIKAFIAVYYLLPKDQGITLRKLVRGATLDIVDGMAQLMEVLSVTPTQSPENNDLISYNSVWVACQQMPQIPRDNKAAALLMLTKNVDFVKDAHEEMEQAVEECDPYSGLLNDTEENNSDNHNHEDDVLGFPSNQDLYWSEDDQELIIPCLALVRASKACLKKIRMLVAENGKKDQVAQLDDIVDISDEISPSVDDLALSIYPPMCHLTVRINSAKLVSVLKKALEITKASHVTPQPEDSWIPLLINAIDHCMNRIKELTQSELEL
partner: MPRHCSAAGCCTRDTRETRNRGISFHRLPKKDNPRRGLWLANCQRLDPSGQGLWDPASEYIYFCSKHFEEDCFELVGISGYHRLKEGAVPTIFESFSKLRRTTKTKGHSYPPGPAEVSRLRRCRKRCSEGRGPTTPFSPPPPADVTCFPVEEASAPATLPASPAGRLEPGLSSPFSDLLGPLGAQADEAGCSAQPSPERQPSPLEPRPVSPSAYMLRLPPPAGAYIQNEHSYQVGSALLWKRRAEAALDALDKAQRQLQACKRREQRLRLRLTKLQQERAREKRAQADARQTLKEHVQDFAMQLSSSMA
B8: Transcription factor 19 (Homo sapiens), Q9Y242 (parent)
chain: MLPCFQLLRIGGGRGGDLYTFHPPAGAGCTYRLGHRADLCDVALRPQQEPGLISGIHAELHAEPRGDDWRVSLEDHSSQGTLVNNVRLPRGHRLELSDGDLLTFGPEGPPGTSPSEFYFMFQQVRVKPQDFAAITIPRSRGEARVGAGFRPMLPSQGAPQRPLSTFSPAPKATLILNSIGSLSKLRPQPLTFSPSWGGPKSLPVPAPPGEMGTTPSAPPQRNRRKSVHRVLAELDDESEPPENPPPVLMEPRKKLRVDKAPLTPTGNRRGRPRKYPVSAPMAPPAVGGGEPCAAPCCCLPQEETVAWVQCDGCDVWFHVACVGCSIQAAREADFRCPGCRAGIQT
B9: Breast cancer anti-estrogen resistance protein 3 (Homo sapiens), O75815-1 (parent)
chain: MAAGKFASLPRNMPVNHQFPLASSMDLLSSRSPLAEHRPDAYQDVSIHGTLPRKKKGPPPIRSCDDFSHMGTLPHSKSPRQNSPVTQDGIQESPWQDRHGETFTFRDPHLLDPTVEYVKFSKERHIMDRTPEKLKKELEEELLLSSEDLRSHAWYHGRIPRQVSENLVQRDGDFLVRDSLSSPGNFVLTCQWKNLAQHFKINRTVLRLSEAYSRVQYQFEMESFDSIPGLVRCYVGNRRPISQQSGAIIFQPINRTVPLRCLEEHYGTSPGQAREGSLTKGRPDVAKRLSLTMGGVQAREQNLPRGNLLRNKEKSGSQPACLDHMQDRRALSLKAHQSESYLPIGCKLPPQSSGVDTSPCPNSPVFRTGSEPALSPAVVRRVSSDARAGEALRGSDSQLCPKPPPKPCKVPFLKVPSSPSAWLNSEANYCELNPAFATGCGRGAKLPSCAQGSHTELLTAKQNEAPGPRNSGVNYLILDDDDRERPWEPAAAQMEKGQWDKGEFVTPLLETVSSFRPNEFESKFLPPENKPLETAMLKRAKELFTNNDPKVIAQHVLSMDCRVARILGVSEEMRRNMGVSSGLELITLPHGHQLRLDIIERHNTMAIGIAVDILGCTGTLEDRAATLSKIIQVAVELKDSMGDLYSFSALMKALEMPQITRLEKTWTALRHQYTQTAILYEKQLKPFSKLLHEGRESTCVPPNNVSVPLLMPLVTLMERQAVTFEGTDMWEKNDQSCEIMLNHLATARFMAEAADSYRMNAERILAGFQPDEEMNEICKTEFQMRLLWGSKGAQVNQTERYEKFNQILTALSRKLEPPPVKQAEL
partner: B9 chain

Variants of: B1
Details: with tri27_human TRIM27, P14373

Variant	effect of a mutation on the interaction
K127R	with no effect

Variants of: B2
Details: with mtus2_human MTUS2, Q5JR59
Chain of mtus2_human MTUS2, Q5JR59 (Q5JR59 whole entry): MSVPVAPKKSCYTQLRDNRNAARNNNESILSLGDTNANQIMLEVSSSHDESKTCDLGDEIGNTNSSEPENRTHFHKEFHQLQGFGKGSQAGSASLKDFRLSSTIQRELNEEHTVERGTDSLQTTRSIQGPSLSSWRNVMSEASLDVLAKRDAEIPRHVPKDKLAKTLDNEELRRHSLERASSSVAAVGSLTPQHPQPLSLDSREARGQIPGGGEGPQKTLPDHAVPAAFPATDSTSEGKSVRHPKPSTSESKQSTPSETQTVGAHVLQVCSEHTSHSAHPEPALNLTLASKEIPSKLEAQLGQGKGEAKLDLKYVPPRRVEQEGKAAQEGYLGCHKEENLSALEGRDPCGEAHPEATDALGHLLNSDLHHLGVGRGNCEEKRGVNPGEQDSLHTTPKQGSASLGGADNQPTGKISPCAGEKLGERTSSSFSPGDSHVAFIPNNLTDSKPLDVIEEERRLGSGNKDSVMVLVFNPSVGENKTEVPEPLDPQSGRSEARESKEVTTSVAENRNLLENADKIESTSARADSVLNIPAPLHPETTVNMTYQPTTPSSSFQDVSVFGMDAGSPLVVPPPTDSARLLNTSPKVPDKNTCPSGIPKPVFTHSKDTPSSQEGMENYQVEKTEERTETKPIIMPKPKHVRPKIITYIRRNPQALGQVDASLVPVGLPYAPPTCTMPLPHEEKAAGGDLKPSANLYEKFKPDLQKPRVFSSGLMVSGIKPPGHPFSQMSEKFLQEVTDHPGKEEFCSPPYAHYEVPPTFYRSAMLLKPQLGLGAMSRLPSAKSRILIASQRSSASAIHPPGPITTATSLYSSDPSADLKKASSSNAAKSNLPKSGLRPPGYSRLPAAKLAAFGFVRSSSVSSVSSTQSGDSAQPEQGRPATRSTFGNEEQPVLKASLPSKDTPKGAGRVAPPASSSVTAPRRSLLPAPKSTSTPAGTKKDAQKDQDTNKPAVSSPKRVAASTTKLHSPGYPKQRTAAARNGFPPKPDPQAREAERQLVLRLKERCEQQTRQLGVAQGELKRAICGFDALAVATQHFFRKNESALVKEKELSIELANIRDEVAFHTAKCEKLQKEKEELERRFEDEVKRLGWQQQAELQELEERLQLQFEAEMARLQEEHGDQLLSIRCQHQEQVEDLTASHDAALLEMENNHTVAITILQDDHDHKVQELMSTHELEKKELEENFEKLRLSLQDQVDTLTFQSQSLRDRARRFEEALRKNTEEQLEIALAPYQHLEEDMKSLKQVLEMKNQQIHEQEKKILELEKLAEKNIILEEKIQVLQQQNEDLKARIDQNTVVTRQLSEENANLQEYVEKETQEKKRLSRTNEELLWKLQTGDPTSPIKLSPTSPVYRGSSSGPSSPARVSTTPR

Variant	effect of a mutation on the interaction
I46V	disrupting interaction strength

Variants of: B3
Details: with rab7l_human RAB29, O14966

Variant	effect of a mutation on the interaction
L12H	disrupting interaction strength

Variants of: B4
Details: with clk3_human CLK3, P49761
Chain of clk3_human CLK3, P49761 (P49761 whole entry, looked up): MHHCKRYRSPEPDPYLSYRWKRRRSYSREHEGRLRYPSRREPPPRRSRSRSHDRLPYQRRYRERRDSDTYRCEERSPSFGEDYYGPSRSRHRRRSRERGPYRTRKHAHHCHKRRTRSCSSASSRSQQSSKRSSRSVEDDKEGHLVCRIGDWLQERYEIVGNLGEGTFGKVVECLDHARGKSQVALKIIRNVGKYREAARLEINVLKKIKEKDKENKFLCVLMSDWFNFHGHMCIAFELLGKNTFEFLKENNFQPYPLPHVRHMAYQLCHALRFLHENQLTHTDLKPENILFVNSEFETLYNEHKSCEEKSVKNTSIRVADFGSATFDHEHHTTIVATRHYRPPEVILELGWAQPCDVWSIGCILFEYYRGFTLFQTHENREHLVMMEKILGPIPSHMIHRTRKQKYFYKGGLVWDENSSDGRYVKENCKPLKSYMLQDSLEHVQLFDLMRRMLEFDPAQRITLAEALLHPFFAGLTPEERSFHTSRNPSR

Variant	effect of a mutation on the interaction
R535Q	disrupting interaction strength
V620M	with no effect

Variants of: B5
Details: with marh2_human MARCHF2, Q9P0N8

Variant	effect of a mutation on the interaction
E108K	with no effect

Variants of: B6
Details: with ifit3_human IFIT3, O14879

Variant	effect of a mutation on the interaction
A162T	with no effect
M453T	with no effect

Variants of: B7
Details: with thap7_human THAP7, Q9BT49

Variant	effect of a mutation on the interaction
I277T	disrupting interaction strength

Variants of: B8
Details: with dnja3_human DNAJA3, Q96EY1
Chain of dnja3_human DNAJA3, Q96EY1 (Q96EY1 whole entry): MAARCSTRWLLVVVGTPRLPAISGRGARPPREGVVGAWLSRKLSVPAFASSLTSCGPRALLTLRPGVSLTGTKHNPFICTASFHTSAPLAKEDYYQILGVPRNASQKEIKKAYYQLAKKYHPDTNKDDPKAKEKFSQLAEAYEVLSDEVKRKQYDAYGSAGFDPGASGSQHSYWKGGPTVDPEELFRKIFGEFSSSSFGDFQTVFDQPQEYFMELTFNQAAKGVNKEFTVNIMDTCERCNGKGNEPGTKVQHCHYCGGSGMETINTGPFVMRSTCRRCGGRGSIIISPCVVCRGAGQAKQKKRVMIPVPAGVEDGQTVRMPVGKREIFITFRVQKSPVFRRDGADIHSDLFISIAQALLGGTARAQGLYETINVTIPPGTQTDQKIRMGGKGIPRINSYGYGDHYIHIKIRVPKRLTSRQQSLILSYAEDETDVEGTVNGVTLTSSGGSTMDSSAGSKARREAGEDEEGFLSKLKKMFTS

Variant	effect of a mutation on the interaction
A279V	with no effect

Variants of: B9
Details: with bcar3_human BCAR3, O75815

Variant	effect of a mutation on the interaction
P404S	with no effect
